From the supplement of paper PMC12042874
± gives the uncertainty stated by the source.

Test: amyloid nucleation score (Sup35N fusion, yeast selection) (log enrichment); library NNK2; higher = more nucleation; inactive = no reads after selection
Outline: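 Libraries of peptides of 20 random codons fused to Sup35N were expressed in psi-negative yeast and induced 24 hours with 100 μM copper sulfate. Selection was 7 days at 30°C on medium lacking adenine and uracil, and plasmid inserts were Illumina-sequenced before and after selection. Nucleation score is the DiMSum log enrichment of output over input reads, centred on the mode score of non-aggregating sequences, and sequences with under 100 input reads were left out.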

Substance	amyloid nucleation score
MVNYDDMANGS	0.465 ± 0.8
MVPCWRFQSMC	0.961 ± 0.81
MVSLIPEMHFNVMLEKVACA	0.562 ± 0.81
MVSSIGILASWYTSIVWFGY	-0.191 ± 1.1
MVYNQCRSDL	-1.04 ± 0.23
MWRAQFIYLRMQLVVACVGI	0.394 ± 0.33
MYIGELIAPVCCLRSQFTPC	5.18 ± 0.075
MYKGA	0.595 ± 0.62
MYKIF	inactive
MYLGH	-0.864 ± 1.1
MYLLVV	0.786 ± 0.41
MYLVRIR	0.316 ± 0.42
MYNENRLLSSFNSVCCMLWG	9.787 ± 0.078
MYNQC	0.271 ± 0.44
MYRCQSSVFIFGSYSPILCH	-0.303 ± 0.63
MYRIDD	6.83 ± 0.088
MYRVEGL	inactive
MYVRYANDFVLLIMQVYRCF	-0.488 ± 1
MYYYSFSDTTLWEISPQLAT	-0.582 ± 1.1
NADGYSLMQRSNFSQSNGYL	inactive
NARFSFKTLRYGGVLRKYPL	-0.363 ± 1.1
NARQSLADSSAVRPDARTLI	0.456 ± 0.45
NATLSSFYSLGNEMHSGHSV	-0.209 ± 0.48
NAVEIERNLLQIFQLLNSGE	-0.739 ± 0.64
NCESQVVDMYITIRLFVLWV	0.202 ± 0.18

Substance	amyloid nucleation score
NCKYVVTMMLTSGLCAENIW	-0.81 ± 1
NCQYFMRGFSVISSTFGMLS	-0.395 ± 0.76
NCRRMFGYNHCSHLCPLRVW	-0.653 ± 1.1
NCWISIYNMFLLRRRMMGMG	-0.611 ± 0.63
NCWYTFTL	1.45 ± 0.12
NDGIFDSTRVVETMCLRSSP	-0.129 ± 1.1
NDGLSILVASNMCLSFAWAW	5.109 ± 0.04
NDGVWKLFPLYLTPRSTFLL	0.895 ± 0.81
NDHVVVAHTFYLCDRNVDEM	0.483 ± 0.4
NDKFCATDESVRSRSI	0.042 ± 0.37
NDLARSFRV	-1.13 ± 1.1
NDSFSFDSRCVVDRFGVAKK	-0.612 ± 0.76
NDSNIRINNFFGNFTFGREL	7.485 ± 0.041
NDVAKYACDKHSGNYGYSQG	0.011 ± 1.1
NEHCVNAGSRWMDGCVSCWY	3.58 ± 0.082
NEHMIHIKSDLRYSAESKPY	0.503 ± 0.18
NEIASEYSYRPLLRGWSS	-0.119 ± 0.4
NEMGFSHISGEMCAP	-0.882 ± 0.24
NENKGNF	-0.947 ± 0.54
NEQIW	0.023 ± 0.39
NERRT	0.995 ± 0.53
NEVTRAWSEFPYFMVSRHMT	0.813 ± 0.47
NFCLVNLEWMRWSNLTDGLQ	5.34 ± 0.055
NFEHVASLIFGLLILDSQSL	-1.43 ± 0.49
NFFSTISQVMRYILFHSKVD	-1.54 ± 0.54

Substance	amyloid nucleation score
NFIRDSMVTCRYEKDLGA	0.713 ± 0.8
NFKWVVAVMG	0.789 ± 0.2
NFLLSL	0.322 ± 0.47
NFMNSP	-0.33 ± 1.1
NFRGGFWPVNMNTRLIWSGV	-1.52 ± 0.62
NFRRLVMGSRNYSLFCGDKE	inactive
NFRSVFFAMCRSCVF	-0.145 ± 0.25
NFSYASNTEHRPVSNIFWEL	-1.33 ± 0.62
NFSYNRCVR	0.383 ± 0.49
NFWYCYTLSDNNYFF	7.41 ± 0.038
NFYMSKVVSFKNGCM	3.3 ± 0.057
NFYSYIWLLL	6.38 ± 0.064
NFYVVDQCSYRSGRLNIKWL	4.13 ± 0.079
NGCQV	0.545 ± 0.6
NGCYQGYKCVLRQLAFKSSG	-0.17 ± 0.5
NGDSGG	1.02 ± 0.16
NGHFCWPFFMARHMELREE	-0.013 ± 0.56
NGIKFRGMVVTP	0.294 ± 0.65
NGILRRCMSKLSRAWPDGLE	10.71 ± 0.046
NGKNILD	inactive
NGMRIGTDLGFYSRGMLRTQ	0.162 ± 0.26
NGSRSSMSGARERYCYIRVS	inactive
NHESYWSKSSWFWLFNGVSQ	inactive
NHRQDKLQNHVSGLPSIGSL	0.059 ± 0.36
NHSVYVYMLMALTTWGVLSS	-0.403 ± 0.79

Substance	amyloid nucleation score
NHYSSVMKVFCDRFTSAIGG	-0.946 ± 0.63
NIARNFRYRM	-1.86 ± 1.1
NIDSVLRNYSCDHRKYHSLE	-0.305 ± 1
NIDSWVKGFVKY	-0.558 ± 1
NIFFVRCYFNVLYNGALCHS	7.025 ± 0.043
NIFQGAICYQTYGGVFPYFL	6.151 ± 0.042
NINDEPPNNHMMHTITHKWT	inactive
NIRAKNRDFRLGLANRKETA	1.15 ± 0.27
NIRNDVLNQLT	2.11 ± 0.14
NIRTKILLGY	0.006 ± 0.44
NIVGHAHRLFNRMRCLRLYQ	-0.439 ± 0.32
NIYNPVD	-0.196 ± 1.1
NKLYFVGKWNGFVSSVCSLV	-0.942 ± 0.41
NKRHSGRFSVLQISA	0.957 ± 0.15
NKVFSFDYVVNNE	inactive
NKYKLNLYMRVIGDQNNPVN	-0.249 ± 1
NLAGKGAITDRFSQVRSGQS	1.4 ± 0.25
NLCDYSSSRLIASRNMHYTA	4 ± 0.07
NLDDEL	0.422 ± 0.43
NLDDYYDNILFTAMR	0.201 ± 0.54
NLEPKNCCCCETFFISYIPT	1.09 ± 0.35
NLGCPYCISVGC	0.649 ± 0.42
NLHATWTLDESDFLYQPCLS	0.102 ± 0.2
NLHEMLIGHGRQVRR	1.42 ± 0.36
NLHYHSSTSSTRNFKYGCAF	inactive

Substance	amyloid nucleation score
NLKDYIAFHNMSTAV	2.22 ± 0.1
NLKRVKRMIPYYTTQ	-0.343 ± 0.33
NLLRNRARWL	-1.08 ± 0.44
NLNFDPGVLF	inactive
NLNMVTWVRQTHI	-0.726 ± 0.32
NLNVIPDCLWFYDSRMLFFI	inactive
NLRRKH	0.294 ± 0.8
NLSLAFALMTSVVNHNMWSG	5.661 ± 0.044
NLSSWTVLILRSDAVVPVFL	4.07 ± 0.078
NMCVK	inactive
NMDKRSNGFRKCMWLS	-0.883 ± 1.1
NMKGTPVYLSFYDCSRPVGW	4.04 ± 0.11
NMLVVFNAPYYSL	7.811 ± 0.049
NMMWCVKHYKSVRSLLGCLV	-0.891 ± 0.54
NMQFSSTFRYSGYYYLVEHW	1.59 ± 0.13
NMYFCLFFRIVLLLGNDKIA	-1.06 ± 0.6
NMYSCQYVCGTALDDDWVGC	7.813 ± 0.059
NNFATLSKL	inactive
NNFEI	-0.672 ± 0.6
NNFYKWGESCLN	-0.9 ± 0.76
NNKYWWDVLYYNSTLLARVN	-0.225 ± 0.48
NNLLYLLLLYVQTSAE	4.49 ± 0.099
NNSAECRMSIKRSACGLQIA	0.961 ± 0.37
NNYAADGRCNYWGSISLKVR	inactive
NPDLNKT	1.36 ± 0.39

Substance	amyloid nucleation score
NPLFHSPV	0.01 ± 0.65
NQFEGLKMRSTKLGAGGS	-0.293 ± 0.64
NQNIVVAVEVQVWFICNFVH	3.08 ± 0.1
NQRIGKTGFYSRSRARLNKT	3.37 ± 0.06
NQSWRVVRQVCVEETRMMCG	0.89 ± 0.23
NQTNSGQRVY	-0.208 ± 1.1
NRAVGNEAYCRSGWSGFHSL	-0.459 ± 1.1
NRELV	-1.67 ± 0.64
NRFFAALLFKADLFWSQF	-0.021 ± 0.76
NRFVYLVI	-0.321 ± 0.36
NRGSAPYYVTICYCNLC	8.578 ± 0.035
NRGTEWISGECRYHWQDVRQ	0.109 ± 0.21
NRKFHIMTFC	0.415 ± 0.41
NRKRLWHYFLGTKDISIERV	inactive
NRRNLSVGYSKVHS	0.443 ± 0.3
NRSAYLGRMVSI	0.164 ± 0.44
NRSTKTMSYWPLVRNLLT	1.51 ± 0.3
NRVTCYSMDRNIM	-0.776 ± 1.1
NRWKHYTDGSTL	-0.02 ± 0.39
NRYVEVCPFLMGTVVGLWLR	0.851 ± 0.8
NSESYRCERY	-0.567 ± 0.49
NSIYLCLSAGRFDSMKVNSE	4.22 ± 0.076
NSKVFS	0.011 ± 1.1
NSLCLLNRQ	0.241 ± 0.54
NSLLNFWEVTLLRGGTHMVF	-0.675 ± 0.29

Substance	amyloid nucleation score
NSLNI	-0.127 ± 1.1
NSLNSMVYYEYFYFLVYVCG	-0.015 ± 0.49
NSNSCAHLTKTRYKSTVRYT	2.1 ± 0.23
NSQGYFMFIKVDHS	-1.39 ± 1.1
NSQTYTGCAVGYVLVNVMGL	6.474 ± 0.033
NSVAIVQIVGASAWRGNLL	5.128 ± 0.046
NSVDSRWGDQLARICIHGMT	0.141 ± 0.42
NSVFRTDCGKRGMVVPGRAH	1.04 ± 0.35
NSVWANARRLTVCGAERGGT	1.24 ± 0.17
NTAFADVDAF	-0.645 ± 0.55
NTALSGDCVRCPSAYEWVKV	3.25 ± 0.11
NTFDVVMT	0.411 ± 0.51
NTLNVWACVGLLLQ	6.48 ± 0.075
NTRASSKGIDMGYCQYH	0.066 ± 0.49
NTWDMLYGIWFSSLLQALLN	inactive
NTWEWLLPEMSNLLSWFSEW	0.014 ± 0.27
NVDQEMDYDYERIGFLPIGT	-0.204 ± 0.33
NVDRFKVINLS	inactive
NVFVLFVHRVVGQELAELLG	4.58 ± 0.065
NVHYLGLVCRCALVFGTNML	inactive
NVIGENLGGLLNIFDTNVSF	inactive
NVIVFRMGCRILNWGAQYGR	6.44 ± 0.082
NVKNKKSVSLPYSKLMRGRE	-0.17 ± 0.65
NVLNGISKLMRHFALKYASM	0.528 ± 0.4
NVLWIDLSRVKVVDGNRSPE	6.342 ± 0.061
